The values below come from patent US20200347144A1 (SHANGHAI HYAMAB BIOTECH, published 2020).

Changes are numbered by the printed parent chain.

Experiment [1] deals with T1, human 4-1BB, full length, on transfected cells (human, UniProt Q07011 24-255).
T1 construct: whole, on cells; also called CHOK1-h4-1BB
Kind of experiment: FACS, CHOK1-h4-1BB cells; Ab 2 ug/ml. From the text: (§1) The pIRES plasmid carrying the full-length gene of monkey-derived […] (the preparation method is the same as the preparation method of the pCpC vector carrying the human-derived IgG Fc fragment (hFc) in “Preparation of immunogen A” of the step (1) in Example 1, in which the database accession number of the amino acid sequence of the extracellular region of monkey 4-1BB protein (Phe19-Thr239) is G7PSE7) was transfected into CHOK1 cell line to obtain CHOK1 stable transfected cell line containing monkey 4-1BB (herein referred to as CHOK1-c4-1BB stable cell line). The CHOK1-h4-1BB stable cell line and the CHOK1-c4-1BB stable cell line were expanded and cultivated to 90% confluence in T-75 cell culture flasks. The medium was exhausted, and washed twice with HBSS buffer (Hanks Balanced Salt Solution, purchased from Invitrogen), and then the cells were treated and collected with enzyme-free cell dissociation solution (Versene solution, purchased from Life Technology). The cells were washed twice with HBSS buffer, and after cell counting, the cells were diluted with HBSS buffer to 2×10⁶ cells per ml, and 1% goat serum blocking solution was added, the percentage being the mass percentage. It was incubated on ice for 30 minutes, and then washed twice with HBSS buffer by centrifugation. The collected cells were suspended in FACS buffer (HBSS containing 1% BSA, the percentage was the mass percentage) to 2×10⁶ cells/mL, and 100 μl per well was added to a 96-well FACS reaction plate. The purified 4-1BB antibody test sample obtained in Example 2 was added, 100 microliters per well and incubated on ice for 2 hours. […] It was washed three times with FACS buffer by centrifugation, and 100 μl of fixative [4% (v/v) paraformaldehyde] per well was added to suspend cells, and washed twice with FACS buffer after 10 minutes by centrifugation. The cells were suspended with 100 microliters of FACS buffer, and the results were detected and analyzed with FACS (FACS Calibur, purchased from BD).
In general terms: A flow cytometer gives signals particle by particle.

The target of experiment [2] is T2, monkey 4-1BB on CHOK1 cells (monkey).
T2 construct: whole, on cells; also called CHOK1-c4-1BB
Kind of experiment: FACS, CHOK1-c4-1BB cells; Ab 10 ug/ml.
Text: as §1

Experiment [3] deals with T2, monkey 4-1BB on CHOK1 cells. As to the kind of experiment: FACS, CHOK1-c4-1BB cells; Ab 0.4 ug/ml.
Text: as §1

Experiment [4] deals with T1, human 4-1BB, full length, on …. As to the kind of experiment: FACS, CHOK1-h4-1BB cells; Ab 0.08 ug/ml.
Text: as §1

In experiment [5] the target is T2, monkey 4-1BB on CHOK1 cells. As to the kind of experiment: FACS, CHOK1-c4-1BB cells; Ab 0.08 ug/ml.
Text: as §1

Experiment [6] addresses T3, hFc-tagged human 4-1BB extracellular domain protein (4-1BB-hFc) (human, UniProt Q07011 24-186, limits assumed).
T3 construct: also called immunogen A; 4-1BB^ECD-hFc; not shown: human IgG Fc fragment (hFc) of the pCpC vector
Kind of experiment: ELISA, coated human 4-1BB-hFc; Ab 2 ug/ml. How it is done:
(§2) The purified immunogen A (4-1BB-hFc), monkey 4-1BB-his, and mouse 4-1BB-his obtained in Example 1 [for the preparation method, see step 1 of Example 1, preparation of immunogen A], of which the extracellular domain of monkey-derived 4-1BB protein (purchased from ACRO biosystems), the extracellular domain of mouse 4-1BB protein (purchased from sino biological) or other immune detection point proteins respectively were diluted with PBS to a final concentration of 1.0 μg/mL, then added with […] per well to 96-well ELISA plate. It was sealed with plastic film and incubated at 4° C. overnight. The next day, the plate was washed twice with the plate-washing solution [PBS containing 0.01% (v/v) Tween20] and blocking solution [PBS containing 0.01% (v/v) Tween 20 and 1% (v/v) BSA] was added and blocked at room temperature for 2 hours. The blocking solution was discarded and 100 μl of the purified 4-1BB antibody obtained in Example 2 was added per well. After incubated at 37° C. for 2 hours, the plate was washed 3 times with a plate-washing solution [PBS containing 0.01% (v/v) Tween20]. A secondary antibody (purchased from Sigma) labeled with HRP (horseradish peroxidase) was added, and after incubated at 37° C. for 2 hours, the plate was washed 3 times with a plate-washing solution [PBS containing 0.01% (v/v) Tween20]. 100 μl of TMB substrate was added per well. After incubated for 30 minutes at room temperature, 100 μl of stop buffer (1.0N HCl) was added per well. The A450 nm values were read using an ELISA plate reader (SpectraMax 384plus, Molecular Device).
In general terms: In an ELISA, binding on a coated surface is turned into a signal by an enzyme label.

The target of experiment [7] is T1, human 4-1BB, full length, on …. Kind of experiment: FACS, CHOK1-h4-1BB cells; Ab 0.0032 ug/ml.
Text: as §1

The target in experiment [8] is T2, monkey 4-1BB on CHOK1 cells. As to the kind of experiment: FACS, CHOK1-c4-1BB cells; Ab 0.0032 ug/ml.
Text: as §1

Experiment [9] concerns the target T1, human 4-1BB, full length, on …. Kind of experiment: FACS, CHOK1-h4-1BB cells; Ab 0.00013 ug/ml.
Text: as §1

Experiment [10] has the same target. As to the kind of experiment: FACS, CHOK1-h4-1BB cells; Ab 0.00064 ug/ml.
Text: as §1

Experiment [11] addresses T2, monkey 4-1BB on CHOK1 cells. Kind of experiment: FACS, CHOK1-c4-1BB cells; Ab 0.00064 ug/ml.
Text: as §1

For experiment [12], the target named is T3, hFc-tagged human 4-1BB extracellular …. As to the kind of experiment: ELISA, coated human 4-1BB-hFc; Ab 0.4 ug/ml. How it is done:
as §2

The target is the same in experiment [13]. As to the kind of experiment: ELISA, coated human 4-1BB-hFc; Ab 0.0001 ug/ml. How it is done: as §2
For experiment [14] the target is unchanged. Kind of experiment: ELISA, coated human 4-1BB-hFc; Ab 0.0006 ug/ml. How it is done: as §2

T1 sequence (Q07011 24-255): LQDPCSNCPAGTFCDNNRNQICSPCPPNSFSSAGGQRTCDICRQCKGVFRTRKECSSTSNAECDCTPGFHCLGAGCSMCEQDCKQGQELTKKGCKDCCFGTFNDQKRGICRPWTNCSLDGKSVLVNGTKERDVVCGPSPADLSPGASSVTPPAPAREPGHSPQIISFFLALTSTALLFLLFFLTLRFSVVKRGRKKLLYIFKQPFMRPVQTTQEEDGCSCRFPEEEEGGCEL

B1: 23G3B8 (antibody, V domains shown)
VH: QVQLQESGPGLVKPSETLSLTCAVSAYSISSGYYWGWIRQPPGKGLEWIGSIFHSGSNYYNPSLKSRVTISVDPSKNQFSLKLSSVTVADTAVYYCARESSGYNCFDYWGQGTLVTVSS
VL: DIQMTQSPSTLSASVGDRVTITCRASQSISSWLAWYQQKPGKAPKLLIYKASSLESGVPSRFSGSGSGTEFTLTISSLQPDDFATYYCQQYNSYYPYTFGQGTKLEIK
Regarding B1, the average fluorescence intensity in [1] amounted to 619 MFI; in [2] it was 595 MFI; in experiment [3] it was 392 MFI; in [4] it was 399 MFI; in [5] it was 154 MFI; in [7], 38.5 MFI. Also, the average fluorescence intensity in [8] was determined as 10.8 MFI; in experiment [9], 4.6 MFI; in experiment [10], 11.2 MFI; in experiment [11], 4.7 MFI. Besides, the OD450 nm in [6] was determined as 2.78 OD450 nm; in experiment [12], 2.77 OD450 nm; in experiment [13] it was 0.07 OD450 nm; in [14], 0.1 OD450 nm.

B2: 172E3E3 (antibody, V domains shown)
VH: QVQLQESGPGLVKPSGTLSLTCAVSGGSISSSNWWSWVRQPPGKGLEWIGEIYHSGSTNYNPSLKSRVTISVDKSKNQLSLNLSSVTAADTAVYYCARQGGVAGTLYWYFDLWGRGTLVTVSS
VL: DIVMTQSPLSLPVTPGEPASISCRSSQGLLHSNGYNYLDWYLQKPGQSPQLLIYLGSNRASGVPDRFIGSGSGTDFTLKIRRVEAEDVGVYYCMQVLQTPWTFGQGTKVEIK
Turning to B2, the average fluorescence intensity in experiment [1] worked out at 486 MFI; in experiment [2], 342 MFI; in experiment [3], 159 MFI; in [4] it was 172 MFI; in experiment [5], 47 MFI; in experiment [7], 13 MFI. Moreover, the average fluorescence intensity worked out at 6.6 MFI in [8], 13.8 MFI in experiment [9], 49.5 MFI in experiment [10] and 71.7 MFI in experiment [11]. Also, the OD450 nm turned out to be 3.44 OD450 nm in [6], 3.44 OD450 nm in [12], 0.14 OD450 nm in [13] and 0.2 OD450 nm in [14].

B3: 119B6G5 (antibody, V domains shown)
VH: EVQLLESGGGLVQPGGSLRLSCAASGFTFSNYAMSWVRQGPGKGLEWVSTIIGSGDSTYYTDSVKGRFTISRDNSKNTLFLQMNSLRAEDTAVYYCARDKSGWYYFDYWGQGTLVTVSS
VL: DIQMTQSPSTLSASVGDRVTITCRASQSISNWLAWYQQKPGKAPKLLIYKASSLESGVPSRFSGSGSGTEFTLTISSLQPDDFATYYCQQYNDYFPITFGQGTRLEIK
With B3, the average fluorescence intensity in experiment [1] worked out at 1080 MFI; in experiment [2], 1470 MFI; in experiment [3], 944 MFI; in experiment [4] it was 199 MFI; in experiment [5] it was 303 MFI; in experiment [7], 17.8 MFI. Moreover, the average fluorescence intensity in [8] is 20.7 MFI; in experiment [9], 2.6 MFI; in experiment [10], 5.1 MFI; in experiment [11], 6.6 MFI. Besides, the OD450 nm in [6] came to 2.76 OD450 nm; in experiment [12], 2.77 OD450 nm; in [13], 0.07 OD450 nm; in experiment [14], 0.11 OD450 nm.

B4: 170D7F2 (antibody, V domains shown)
VH: QVQLVQSGAEVKKPGASVKVSCKASGYTFTSYDINWVRQATGQGLEWMGWMNPNSGNTGYAQKFQGRVTMTRNTSISTAYMELSSLRSEDTAVYYCARETGPFDYWGQGTLVTVSS
VL: DIQMTQSPSSLSASVGDRVTITCRASQRINNYLNWYQQKPGKAPKLLIYGASSLQSGVPSRFSGSGSGTDFTLTISSLQPEDFATYYCQQSYSTPFTFGPGTKVDIK
Consider B4, for which the average fluorescence intensity in [1] was 736 MFI; in [2] it was 700 MFI; in experiment [3] it was 304 MFI; in experiment [4] it was 183 MFI; in experiment [5], 96.3 MFI; in experiment [7], 14 MFI. Besides, the average fluorescence intensity in [8] worked out at 8.5 MFI; in experiment [9], 2.6 MFI; in experiment [10], 4.9 MFI; in experiment [11], 4 MFI. Further, the OD450 nm in experiment [6] was found to be 3.49 OD450 nm; in [12], 3.5 OD450 nm; in experiment [13], 0.13 OD450 nm; in [14], 0.19 OD450 nm.

B5: 182A5B3 (antibody, V domains shown)
VH: B4 VH with A61V
VL: not shown
In the case of B5, the average fluorescence intensity in experiment [1] was 760 MFI; in experiment [2], 746 MFI; in experiment [3], 373 MFI; in experiment [4] it was 200 MFI; in experiment [5], 118 MFI; in experiment [7], 14.8 MFI. Also, the average fluorescence intensity in experiment [8] amounted to 10.4 MFI; in experiment [9] it was 2.6 MFI; in experiment [10], 5 MFI; in experiment [11], 4.4 MFI. Also, the OD450 nm was determined as 3.54 OD450 nm in [6], 3.56 OD450 nm in experiment [12], 0.13 OD450 nm in experiment [13] and 0.18 OD450 nm in [14].

B6: 258F5A8 (antibody, V domains shown)
VH: QVQLVESGGGVVQPGRSLRLSCAASGFTFSSYGMHWVRQAPGKGLEWVAVIWYDGSNKYYADSVKGRFNISRDNSKNTLYLQMNSLRAEDTAVYYCARGPYLYSSGWYDYYYYGMDVWGQGTTVTVSS
VL: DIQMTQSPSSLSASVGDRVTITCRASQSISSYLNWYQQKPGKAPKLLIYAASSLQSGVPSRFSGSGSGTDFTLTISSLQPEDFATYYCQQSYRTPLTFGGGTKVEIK
B6: the average fluorescence intensity amounted to 766 MFI in experiment [1]; 131 MFI in experiment [2]; 71.4 MFI in [3]; 252 MFI in [4]; 26.6 MFI in experiment [5]; 21.1 MFI in experiment [7]. For the same molecule, the average fluorescence intensity came to 4.5 MFI in [8], 4.1 MFI in experiment [9], 7 MFI in experiment [10] and 3 MFI in experiment [11]. The OD450 nm was 2.67 OD450 nm in [6], 2.69 OD450 nm in [12], 0.06 OD450 nm in [13] and 0.09 OD450 nm in experiment [14].
